According to publication PMC10540216, “Activity Guided Azide-methyllysine Photo-trapping for Substrate Profiling of Lysine Demethylases” (Journal of the American Chemical Society, 2023):

B1: CLPB_HUMAN (protein, UniProt Q9H078 37-707, looked up)
Mitochondrial disaggregase: VTTGSLGEPQWLRVATGGRPGTSPALFSGRGAATGGRQGGRFDTKCLAAATWGRLPGPEETLPGQDSWNGVPSRAGLGMCALAAALVVHCYSKSPSNKDAALLEAARANNMQEVSRLLSEGADVNAKHRLGWTALMVAAINRNNSVVQVLLAAGADPNLGDDFSSVYKTAKEQGIHSLEDGGQDGASRHITNQWTSALEFRRWLGLPAGVLITREDDFNNRLNNRASFKGCTALHYAVLADDYRTVKELLDGGANPLQRNEMGHTPLDYAREGEVMKLLRTSEAKYQEKQRKREAEERRRFPLEQRLKEHIIGQESAIATVGAAIRRKENGWYDEEHPLVFLFLGSSGIGKTELAKQTAKYMHKDAKKGFIRLDMSEFQERHEVAKFIGSPPGYVGHEEGGQLTKKLKQCPNAVVLFDEVDKAHPDVLTIMLQLFDEGRLTDGKGKTIDCKDAIFIMTSNVASDEIAQHALQLRQEALEMSRNRIAENLGDVQISDKITISKNFKENVIRPILKAHFRRDEFLGRINEIVYFLPFCHSELIQLVNKELNFWAKRAKQRHNITLLWDREVADVLVDGYNVHYGARSIKHEVERRVVNQLAAAYEQDLLPGGCTLRITVEDSDKQLLKSPELPSPQAEKRLPKLRLEIIDKDSKTRRLDIRAPLHPEKVCNTI
B2: PSPC1_HUMAN (protein, UniProt Q8WXF1 1-523, looked up)
Paraspeckle component 1: MMLRGNLKQVRIEKNPARLRALESAVGESEPAAAAAMALALAGEPAPPAPAPPEDHPDEEMGFTIDIKSFLKPGEKTYTQRCRLFVGNLPTDITEEDFKRLFERYGEPSEVFINRDRGFGFIRLESRTLAEIAKAELDGTILKSRPLRIRFATHGAALTVKNLSPVVSNELLEQAFSQFGPVEKAVVVVDDRGRATGKGFVEFAAKPPARKALERCGDGAFLLTTTPRPVIVEPMEQFDDEDGLPEKLMQKTQQYHKEREQPPRFAQPGTFEFEYASRWKALDEMEKQQREQVDRNIREAKEKLEAEMEAARHEHQLMLMRQDLMRRQEELRRLEELRNQELQKRKQIQLRHEEEHRRREEEMIRHREQEELRRQQEGFKPNYMENREQEMRMGDMGPRGAINMGDAFSPAPAGNQGPPPMMGMNMNNRATIPGPPMGPGPAMGPEGAANMGTPMMPDNGAVHNDRFPQGPPSQMGSPMGSRTGSETPQAPMSGVGPVSGGPGGFGRGSQGGNFEGPNKRRRY
B3: K2C1B_HUMAN (protein, UniProt Q7Z794 1-578, looked up)
Keratin, type II cytoskeletal …: MSHQFSSQSAFSSMSRRVYSTSSSAGSGGGSPAVGSVCYARGRCGGGGYGIHGRGFGSRSLYNLGGSRSISINLMGRSTSGFCQGGGVGGFGGGRGFGVGSTGAGGFGGGGFGGAGFGTSNFGLGGFGPYCPPGGIQEVTINQSLLEPLHLEVDPEIQRIKTQEREQIMVLNNKFASFIDKVRFLEQQNQVLQTKWELLQQVNTSTGTNNLEPLLENYIGDLRRQVDLLSAEQMRQNAEVRSMQDVVEDYKSKYEDEINKRTGSENDFVVLKKDVDAAYVSKVDLESRVDTLTGEVNFLKYLFLTELSQVQTHISDTNVILSMDNNRSLDLDSIIDAVRTQYELIAQRSKDEAEALYQTKYQELQITAGRHGDDLKNSKMEIAELNRTVQRLQAEISNVKKQIEQMQSLISDAEERGEQALQDAWQKLQDLEEALQQSKEELARLLRDYQAMLGVKLSLDVEIATYRQLLEGEESRMSGELQSHVSISVQNSQVSVNGGAGGGGSYGSGGYGGGSGGGYGGGRSYRGGGARGRSGGGYGSGCGGGGGSYGGSGRSGRGSSRVQIIQTSTNTSHRRILE
B4: SNW1_HUMAN (protein, UniProt Q13573 2-536, looked up)
SNW domain-containing protein …: ALTSFLPAPTQLSQDQLEAEEKARSQRSRQTSLVSSRREPPPYGYRKGWIPRLLEDFGDGGAFPEIHVAQYPLDMGRKKKMSNALAIQVDSEGKIKYDAIARQGQSKDKVIYSKYTDLVPKEVMNADDPDLQRPDEEAIKEITEKTRVALEKSVSQKVAAAMPVRAADKLAPAQYIRYTPSQQGVAFNSGAKQRVIRMVEMQKDPMEPPRFKINKKIPRGPPSPPAPVMHSPSRKMTVKEQQEWKIPPCISNWKNAKGYTIPLDKRLAADGRGLQTVHINENFAKLAEALYIADRKAREAVEMRAQVERKMAQKEKEKHEEKLREMAQKARERRAGIKTHVEKEDGEARERDEIRHDRRKERQHDRNLSRAAPDKRSKLQRNENRDISEVIALGVPNPRTSNEVQYDQRLFNQSKGMDSGFAGGEDEIYNVYDQAWRGGKDMAQSIYRPSKNLDKDMYGDDLEARIKTNRFVPDKEFSGSDRRQRGREGPVQFEEDPFGLDKFLEEAKQHGGSKRPSDSSRPKEHEHEGKKRRKE
B5: TCPD_HUMAN (protein, UniProt P50991 2-539, looked up)
T-complex protein 1 subunit …: PENVAPRSGATAGAAGGRGKGAYQDRDKPAQIRFSNISAAKAVADAIRTSLGPKGMDKMIQDGKGDVTITNDGATILKQMQVLHPAARMLVELSKAQDIEAGDGTTSVVIIAGSLLDSCTKLLQKGIHPTIISESFQKALEKGIEILTDMSRPVELSDRETLLNSATTSLNSKVVSQYSSLLSPMSVNAVMKVIDPATATSVDLRDIKIVKKLGGTIDDCELVEGLVLTQKVSNSGITRVEKAKIGLIQFCLSAPKTDMDNQIVVSDYAQMDRVLREERAYILNLVKQIKKTGCNVLLIQKSILRDALSDLALHFLNKMKIMVIKDIEREDIEFICKTIGTKPVAHIDQFTADMLGSAELAEEVNLNGSGKLLKITGCASPGKTVTIVVRGSNKLVIEEAERSIHDALCVIRCLVKKRALIAGGGAPEIELALRLTEYSRTLSGMESYCVRAFADAMEVIPSTLAENAGLNPISTVTELRNRHAQGEKTAGINVRKGGISNILEELVVQPLLVSVSALTLATETVRSILKIDDVVNTR
B6: ASNS_HUMAN (protein, UniProt P08243 2-561, looked up)
Asparagine synthetase …: CGIWALFGSDDCLSVQCLSAMKIAHRGPDAFRFENVNGYTNCCFGFHRLAVVDPLFGMQPIRVKKYPYLWLCYNGEIYNHKKMQQHFEFEYQTKVDGEIILHLYDKGGIEQTICMLDGVFAFVLLDTANKKVFLGRDTYGVRPLFKAMTEDGFLAVCSEAKGLVTLKHSATPFLKVEPFLPGHYEVLDLKPNGKVASVEMVKYHHCRDVPLHALYDNVEKLFPGFEIETVKNNLRILFNNAVKKRLMTDRRIGCLLSGGLDSSLVAATLLKQLKEAQVQYPLQTFAIGMEDSPDLLAARKVADHIGSEHYEVLFNSEEGIQALDEVIFSLETYDITTVRASVGMYLISKYIRKNTDSVVIFSGEGSDELTQGYIYFHKAPSPEKAEEESERLLRELYLFDVLRADRTTAAHGLELRVPFLDHRFSSYYLSLPPEMRIPKNGIEKHLLRETFEDSNLIPKEILWRPKEAFSDGITSVKNSWFKILQEYVEHQVDDAMMANAAQKFPFNTPKTKEGYYYRQVFERHYPGRADWLSHYWMPKWINATDPSARTLTHYKSAVKA
B7: LAP2A_HUMAN (protein, UniProt P42166 2-694, looked up)
Lamina-associated polypeptide …: PEFLEDPSVLTKDKLKSELVANNVTLPAGEQRKDVYVQLYLQHLTARNRPPLPAGTNSKGPPDFSSDEEREPTPVLGSGAAAAGRSRAAVGRKATKKTDKPRQEDKDDLDVTELTNEDLLDQLVKYGVNPGPIVGTTRKLYEKKLLKLREQGTESRSSTPLPTISSSAENTRQNGSNDSDRYSDNEEGKKKEHKKVKSTRDIVPFSELGTTPSGGGFFQGISFPEISTRPPLGSTELQAAKKVHTSKGDLPREPLVATNLPGRGQLQKLASERNLFISCKSSHDRCLEKSSSSSSQPEHSAMLVSTAASPSLIKETTTGYYKDIVENICGREKSGIQPLCPERSHISDQSPLSSKRKALEESESSQLISPPLAQAIRDYVNSLLVQGGVGSLPGTSNSMPPLDVENIQKRIDQSKFQETEFLSPPRKVPRLSEKSVEERDSGSFVAFQNIPGSELMSSFAKTVVSHSLTTLGLEVAKQSQHDKIDASELSFPFHESILKVIEEEWQQVDRQLPSLACKYPVSSREATQILSVPKVDDEILGFISEATPLGGIQAASTESCNQQLDLALCRAYEAAASALQIATHTAFVAKAMQADISQAAQILSSDPSRTHQALGILSKTYDAASYICEAAFDEVKMAAHTMGNATVGRRYLWLKDCKINLASKNKLASTPFKGGTLFGGEVCKVIKKRGNKH
B8: ERP44_HUMAN (protein, UniProt Q9BS26 30-406, looked up)
Endoplasmic reticulum …: EITSLDTENIDEILNNADVALVNFYADWCRFSQMLHPIFEEASDVIKEEFPNENQVVFARVDCDQHSDIAQRYRISKYPTLKLFRNGMMMKREYRGQRSVKALADYIRQQKSDPIQEIRDLAEITTLDRSKRNIIGYFEQKDSDNYRVFERVANILHDDCAFLSAFGDVSKPERYSGDNIIYKPPGHSAPDMVYLGAMTNFDVTYNWIQDKCVPLVREITFENGEELTEEGLPFLILFHMKEDTESLEIFQNEVARQLISEKGTINFLHADCDKFRHPLLHIQKTPADCPVIAIDSFRHMYVFGDFKDVLIPGKLKQFVFDLHSGKLHREFHHGPDPTDTAPGEQAQDVASSPPESSFQKLAPSEYRYTLLRDRDEL
B9: ODBA_HUMAN (protein, UniProt P12694 46-445, looked up)
2-oxoisovalerate …: SSLDDKPQFPGASAEFIDKLEFIQPNVISGIPIYRVMDRQGQIINPSEDPHLPKEKVLKLYKSMTLLNTMDRILYESQRQGRISFYMTNYGEEGTHVGSAAALDNTDLVFGQYREAGVLMYRDYPLELFMAQCYGNISDLGKGRQMPVHYGCKERHFVTISSPLATQIPQAVGAAYAAKRANANRVVICYFGEGAASEGDAHAGFNFAATLECPIIFFCRNNGYAISTPTSEQYRGDGIAARGPGYGIMSIRVDGNDVFAVYNATKEARRRAVAENQPFLIEAMTYRIGHHSTSDDSSAYRSVDEVNYWDKQDHPISRLRHYLLSQGWWDEEQEKAWRKQSRRKVMEAFEQAERKPKPNPNLLFSDVYQEMPAQLRKQQESLARHLQTYGEHYPLDHFDK
B10: PDIP3_HUMAN (protein, UniProt Q9BY77 2-421, looked up)
Polymerase delta-interacting …: ADISLDELIRKRGAAAKGRLNARPGVGGVRSRVGIQQGLLSQSTRTATFQQRFDARQKIGLSDARLKLGVKDAREKLLQKDARFRIKGKVQDAREMLNSRKQQTTVPQKPRQVADAREKISLKRSSPAAFINPPIGTVTPALKLTKTIQVPQQKAMAPLHPHPAGMRINVVNNHQAKQNLYDLDEDDDGIASVPTKQMKFAASGGFLHHMAGLSSSKLSMSKALPLTKVVQNDAYTAPALPSSIRTKALTNMSRTLVNKEEPPKELPAAEPVLSPLEGTKMTVNNLHPRVTEEDIVELFCVCGALKRARLVHPGVAEVVFVKKDDAITAYKKYNNRCLDGQPMKCNLHMNGNVITSDQPILLRLSDSPSMKKESELPRRVNSASSSNPPAEVDPDTILKALFKSSGASVTTQPTEFKIKL
B11: CATA_HUMAN (protein, UniProt P04040 2-527, looked up)
Catalase: ADSRDPASDQMQHWKEQRAAQKADVLTTGAGNPVGDKLNVITVGPRGPLLVQDVVFTDEMAHFDRERIPERVVHAKGAGAFGYFEVTHDITKYSKAKVFEHIGKKTPIAVRFSTVAGESGSADTVRDPRGFAVKFYTEDGNWDLVGNNTPIFFIRDPILFPSFIHSQKRNPQTHLKDPDMVWDFWSLRPESLHQVSFLFSDRGIPDGHRHMNGYGSHTFKLVNANGEAVYCKFHYKTDQGIKNLSVEDAARLSQEDPDYGIRDLFNAIATGKYPSWTFYIQVMTFNQAETFPFNPFDLTKVWPHKDYPLIPVGKLVLNRNPVNYFAEVEQIAFDPSNMPPGIEASPDKMLQGRLFAYPDTHRHRLGPNYLHIPVNCPYRARVANYQRDGPMCMQDNQGGAPNYYPNSFGAPEQQPSALEHSIQYSGEVRRFNTANDDNVTQVRAFYVNVLNEEQRKRLCENIAGHLKDAQIFIQKKAVKNFTEVHPDYGSHIQALLDKYNAEKPKNAIHTFVQSGSHLAAREKANL

The molecules below were run on KDM4A-I71AzF (assay: CASI: photo-crosslinking with HEK293T cell extracts, StrepTactin enrichment and LC-MS/MS proteomics). Details: sheet "Final results but with 0.01".
Format: binding, human
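Note: lysates from HEK293T cells pretreated with a KDM4 inhibitor to raise proteome methylation, affinity-purified after ±UV, gel-resolved, trypsin-digested, with exclusive unique peptides per protein averaged per condition.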

First: B1
Second: B2
The “Fold change (+UV/-UV)” value of the first is higher: 2 for the first, 1.667 for the second.

Compared with B3, B4 is lower in “Fold change (+UV/-UV)” value: 4 for the first, 2 for the second.

Going from B5 to B6, the “Fold change (+UV/-UV)” value rises from 0 to 2.

First: B7
Second: B8
The “Fold change (+UV/-UV)” value of the first is lower: 0 for the first, 0.5 for the second.

B9 and B10 are the same in “Fold change (+UV/-UV)” value: 1 for the first, 1 for the second.

B11 was tested, and the “Fold change (+UV/-UV)” value was 2.
